Laboratory results: patent publication US20120034228A1 (MICROMET, published 2012)

T1: 1-27 CD3-EpCAM comprising the marmoset 27 mer (Callithrix jacchus; cynomolgus)
T1 construct: on transfected cells
T1 chain: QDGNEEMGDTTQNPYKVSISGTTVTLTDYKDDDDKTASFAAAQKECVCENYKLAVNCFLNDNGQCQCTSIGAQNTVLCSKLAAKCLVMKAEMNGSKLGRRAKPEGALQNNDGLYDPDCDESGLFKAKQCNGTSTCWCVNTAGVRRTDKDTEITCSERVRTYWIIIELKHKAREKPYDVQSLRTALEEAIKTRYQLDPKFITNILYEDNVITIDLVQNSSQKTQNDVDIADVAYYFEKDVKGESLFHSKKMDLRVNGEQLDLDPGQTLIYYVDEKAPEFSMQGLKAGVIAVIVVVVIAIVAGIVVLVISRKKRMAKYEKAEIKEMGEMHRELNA

T2: 1-27 CD3-EpCAM comprising the human 27 mer (human; cynomolgus)
T2 construct: on transfected cells
T2 chain: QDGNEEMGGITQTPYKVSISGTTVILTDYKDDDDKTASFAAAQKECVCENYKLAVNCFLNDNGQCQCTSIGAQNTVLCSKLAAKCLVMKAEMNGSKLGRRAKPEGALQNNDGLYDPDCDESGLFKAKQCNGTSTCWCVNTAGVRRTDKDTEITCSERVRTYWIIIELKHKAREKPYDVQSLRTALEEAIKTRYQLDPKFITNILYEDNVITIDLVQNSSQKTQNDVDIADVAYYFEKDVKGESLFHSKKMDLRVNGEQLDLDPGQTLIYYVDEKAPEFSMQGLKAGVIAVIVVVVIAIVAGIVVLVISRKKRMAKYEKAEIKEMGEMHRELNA

T3: 1-27 CD3-EpCAM comprising the squirrel monkey 27 mer (Saimiri sciureus; cynomolgus)
T3 construct: on transfected cells
T3 chain: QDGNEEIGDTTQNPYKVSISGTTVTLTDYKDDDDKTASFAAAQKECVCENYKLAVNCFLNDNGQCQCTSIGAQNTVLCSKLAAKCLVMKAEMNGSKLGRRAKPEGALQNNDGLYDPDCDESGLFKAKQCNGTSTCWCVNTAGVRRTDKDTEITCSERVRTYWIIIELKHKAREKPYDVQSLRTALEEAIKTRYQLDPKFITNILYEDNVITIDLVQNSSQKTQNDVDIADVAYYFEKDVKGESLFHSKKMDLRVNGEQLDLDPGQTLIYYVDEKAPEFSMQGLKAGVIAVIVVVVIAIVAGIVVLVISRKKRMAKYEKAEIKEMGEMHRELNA

B1: A2J HLP (scFv)
scFv: EVQLLESGGGLVQPGGSLKLSCAASGFTFNVYAMNWVRQAPGKGLEWVARIRSKYNNYATYYADSVKKRFTISRDDSKNTAYLQMNNLKTEDTAVYYCVRHGNFGNSYLSWWAYWGQGTLVTVSSGGGGSGGGGSGGGGSELVVTQEPSLTVSPGGTVTLTCRSSTGAVTSGYYPNWVQQKPGQAPRGLIGATDMRPSGTPARFSGSLLGGKAALTLSGVQPEDEAEYYCALWYSNRWVFGGGTKLTVL
notes: crude periplasmic preparation, Flag and His6 tags
B2: E2M HLP (scFv)
scFv: EVQLLESGGGLVQPGGSLKLSCAASGFTFNGYAMNWVRQAPGKGLEWVARIRSKYNNYATYYADSVKERFTISRDDSKNTAYLQMNNLKTEDTAVYYCVRHRNFGNSYLSWFAYWGQGTLVTVSSGGGGSGGGGSGGGGSELVVTQEPSLTVSPGGTVTLTCRSSTGAVTSGYYPNWVQQKPGQAPRGLIGATDMRPSGTPARFSGSLLGGKAALTLSGVQPEDEAEYYCALWYSNRWVFGGGTKLTVL
notes: as for B1
B3: 86D2HL (scFv)
scFv: EVQLLESGGGLVQPGGSLKLSCAASGFDFSTYWMSWVRQAPGKGLEWIGEINPDSSTINYTPSLKDKFIISRDNAKNTLYLQMNKVRSEDTALYYCAGGYYRYPYYYTMDYWGQGTTVTVSSGGGGSGGGGSGGGGSELVMTQSPASLSASVGETVTITCRASGNIHNYLAWYQQKQGKSPQLLVYNAKTLADGVPSRFSGSGSGTQYSLKINSLQPEDFGSYYCQHFWSTPYTFGGGTKLEIK
notes: periplasmic preparation
B4: 86D6HL (scFv)
scFv: EVQLLESGGGLVQPGGSLKLSCAASGFDFSTYWMSWVRQAPGKGLEWIGEINPDSSTINYTPSLKDKFIISRDNAKNTLYLQMTKVRPEDTALYYCAGGYYRYPYYYTMDYWGQGTTVTVSSGGGGSGGGGSGGGGSELVMTQSPASLSASVGETVTITCRASGSIHNYLAWYQQKQGKSPQLLVYNAKTLADGVPSRFSGSGSGTQYSLKINSLQPEDFGSYYCQHFWSTPYTFGGGTKLEIK
notes: periplasmic preparation
B5: 86E5HL (scFv)
scFv: EVQLLESGGGLVQPGGSLKLSCAASGFDFSRSWMSWVRQAPGKGLEWIGEINPDSSTINYTPSLKDKFIISRDNAKNTLYLQMSKVRSEDTALYYCAGGYYRYPYYYTMDYWGQGTTVTVSSGGGGSGGGGSGGGGSELQMTQSPASLSASVGETVTITCRASENIYSYLAWYQQKQGKSPQLLVYNAKTLAEGVPSRFSGSGSRTQYSLKINSLQPEDFGSYYCQHFWSTPYTFGGGTKLEIK
notes: periplasmic preparation
B6: 86F2HL (scFv)
scFv: EVQLLESGGGLVQPGGSLKLSCAASGFDFSTYWMSWVRQAPGKGLEWIGEINPDSSTVNYTPSLKDKFIISRDNAKNTLYLQMTKVRSEDTALYYCAGGYYRYPYYYTMDYWGQGTTVTVSSGGGGSGGGGSGGGGSELQMTQSPASLSASVGETVTITCRASGNIHNYLAWYQQKQGKSPQLLVYNAKTLADGVPSRFSGSGSGTQYSLKINSLQPEDFGSYYCQHFWSTPYTFGGGTKLEIK
notes: periplasmic preparation
B7: 86C12HL (scFv)
scFv: EVQLLESGGGLVQPGGSLKLSCAASGFDFSRSWMSWVRQAPGKGLEWIGEINPDSSTINYTPSLKDKFIISRDNAKNTLYLQMSKVRSEDTALYYCAGGYYRYPYYYTMDYWGQGTTVTVSSGGGGSGGGGSGGGGSELQMTQSPASLSASVGETVTITCRASGNIHNYLAWYQQKQGKSPQLLVYNAKTLADGVPSRFSGSGSGTQYSLKINSLQPEDFGSYYCQHFWSTPYTFGGGTKLEIK
notes: periplasmic preparation
B8: 86F12HL (scFv)
scFv: EVQLLESGGGLVQPGGSLNLSCAASGFDFSTYWMSWVRQAPGKGLEWIGEINPDSSTINYTPSLKDKFIISRDNAKNTLYLQMNKVRSDDTALYYCAGGYYRYPYYYTMDYWGQGTTVTVSSGGGGSGGGGSGGGGSELQMTQSPASLSASVGETVTITCRASGNIHNYLAWYQQKQGKSPQLLVYNAKTLADGVPSRFSGSGSGTQYSLKINSLQPEDFGSYYCQHFWSTPYTFGGGTKLEIK
notes: periplasmic preparation
B9: 87G9HL (scFv)
scFv: EVQLLESGGGLVQPGGSLKLSCAASGFDFSRYWMSWVRQAPGKGLEWIGEINPDSSTINYTPSLKDKFIISRDNAKNTLYLQMSKVRSEDTALYYCAGGYYRYPYYYTMDYWGQGTTVTVSSGGGGSGGGGSGGGGSELVMTQSPASLSASVGETVTITCRASGNIHNYLAWYQQKQGKSPQLLVYNAKTLADGVPSRFSGSGSGTQYSLKINSLQPEDFGSYYCQHFWSTPYTFGGGTKLEIK
notes: periplasmic preparation
B10: 86F10HL (scFv)
scFv: EVQLLESGGGLVQPGGSLKLSCAASGFDFSTYWMSWVRQAPGKGLEWIGEINPDSSTINYTPSLKDKFIISRDNAKNTLYLQMNKVRSDDTALYYCAGGYYRYPYYYTMDYWGQGTTVTVSSGGGGSGGGGSGGGGSELVMTQSPSSLSASVGETVTITCRASGNIHNYLAWYQQKQGKSPQLLVYNAKTLADGVPSRFSGSGSGTQYSLKINSLQPEDFGSYYCQHFWSTPYTFGGGTKLEIK
notes: periplasmic preparation
B11: MCSP-G4 HLP x E2M HLP (bispecific antibody)
chain: QVQLVQSGAEVKRPGASMKVSCKASGYTFTNYYIHWVRQAPGQGLEWMGWINPNSGATNYAQKFQGRVTMTRDTSTSTVYMELSSLRSEDTAVYYCAKSWVSWFASWGQGTLVTVSSGGGGSGGGGSGGGGSELVMTQSPDSLAVSLGERATINCKSSQSVLNSSNNRNYLAWYQQKPGQPPKLLIYWASTRESGVPDRFSGSGSGTDFTLTISGLQAEDVAVYYCQQHYSTPFTFGPGTKVDIKSGGGGSEVQLLESGGGLVQPGGSLKLSCAASGFTFNGYAMNWVRQAPGKGLEWVARIRSKYNNYATYYADSVKERFTISRDDSKNTAYLQMNNLKTEDTAVYYCVRHRNFGNSYLSWFAYWGQGTLVTVSSGGGGSGGGGSGGGGSELVVTQEPSLTVSPGGTVTLTCRSSTGAVTSGYYPNWVQQKPGQAPRGLIGATDMRPSGTPARFSGSLLGGKAALTLSGVQPEDEAEYYCALWYSNRWVFGGGTKLTVL
notes: C-terminal His6 tag added

What was measured:
1-27 CD3-Fc = biological target: T4, 1-27 CD3-Fc (human); experiment: ELISA on captured 1-27 CD3-Fc
T4 construct: aa 1-27 of mature human CD3 epsilon, hinge and Fc gamma of human IgG1, His6; also called human CD3 epsilon (aa 1-27)-Fc fusion protein; 27 aa huCD3E

[1] = biological target: T1, 1-27 CD3-EpCAM comprising the marmoset …; experiment: FACS on transfected 293-HEK cells
[2] = biological target: T2, 1-27 CD3-EpCAM comprising the human 27 …; experiment: FACS on transfected 293-HEK cells
[3] = biological target: T3, 1-27 CD3-EpCAM comprising the squirrel …; experiment: FACS on transfected 293-HEK cells
[4] = biological target: human FAPalpha (on CHO cells) (human, UniProt Q12884 1-760); experiment: FACS on CHO cells
[5] = biological target: macaque FAPalpha (on CHO cells) (macaque (Cynomolgus)); experiment: FACS on CHO cells
[6] = biological target: T5, human CD3 (on the human CD3 positive T cell leukemia cell line HPB-ALL) (human, UniProt P07766 23-207); experiment: FACS on HPB-ALL
T5 construct: whole, on cells; native CD3 complex on T cells; also called human CD3 epsilon
T5 sequence (P07766 23-207): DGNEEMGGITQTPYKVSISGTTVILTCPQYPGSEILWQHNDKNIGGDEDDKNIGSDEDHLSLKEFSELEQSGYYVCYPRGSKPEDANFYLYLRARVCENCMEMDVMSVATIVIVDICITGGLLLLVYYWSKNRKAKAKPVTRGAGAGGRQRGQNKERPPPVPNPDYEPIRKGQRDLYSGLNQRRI

Sequence of macaque FAPalpha (on CHO cells) (macaque (Cynomolgus)) (chain, as listed by the source): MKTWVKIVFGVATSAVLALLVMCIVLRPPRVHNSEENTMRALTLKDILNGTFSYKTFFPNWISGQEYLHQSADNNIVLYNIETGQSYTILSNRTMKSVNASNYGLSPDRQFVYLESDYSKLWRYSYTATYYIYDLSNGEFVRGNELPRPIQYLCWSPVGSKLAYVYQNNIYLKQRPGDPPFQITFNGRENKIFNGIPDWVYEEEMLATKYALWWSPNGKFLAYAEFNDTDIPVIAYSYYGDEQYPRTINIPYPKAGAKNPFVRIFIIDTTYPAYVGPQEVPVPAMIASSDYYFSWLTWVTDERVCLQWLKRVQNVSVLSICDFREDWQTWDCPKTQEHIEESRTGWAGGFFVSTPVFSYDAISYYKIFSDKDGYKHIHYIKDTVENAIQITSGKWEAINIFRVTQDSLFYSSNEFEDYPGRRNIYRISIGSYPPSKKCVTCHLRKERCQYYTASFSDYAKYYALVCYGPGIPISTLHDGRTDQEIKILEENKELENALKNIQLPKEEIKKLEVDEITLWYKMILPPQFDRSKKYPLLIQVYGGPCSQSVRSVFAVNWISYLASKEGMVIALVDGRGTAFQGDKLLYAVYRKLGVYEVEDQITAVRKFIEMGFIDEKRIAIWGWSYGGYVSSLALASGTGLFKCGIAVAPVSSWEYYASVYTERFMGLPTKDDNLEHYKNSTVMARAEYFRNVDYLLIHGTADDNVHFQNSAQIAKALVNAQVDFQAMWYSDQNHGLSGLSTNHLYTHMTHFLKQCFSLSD

Row | Binder | binding result [4] | binding result [5] | also measured
1 | B1 |  |  | binding result (1-27 CD3-Fc): binds
2 | B2 |  |  | binding result (1-27 CD3-Fc): binds; binding result [1]: binds; binding result [2]: binds; binding result [3]: binds
3 | B3 | binds | binds | 
4 | B4 | binds | binds | 
5 | B5 | binds | binds | 
6 | B6 | binds | binds | 
7 | B7 | binds | binds | 
8 | B8 | binds | binds | 
9 | B9 | binds | binds | 
10 | B10 | binds | binds | 
11 | B11 |  |  | binding result [6]: binds
